According to US20200353067A1:

Target: CX3CR1 (fractalkine receptor) (human) (UniProt P49238)
Experiment: cell-based or functional assay

Sequence of UniProt P49238 (P49238 whole entry): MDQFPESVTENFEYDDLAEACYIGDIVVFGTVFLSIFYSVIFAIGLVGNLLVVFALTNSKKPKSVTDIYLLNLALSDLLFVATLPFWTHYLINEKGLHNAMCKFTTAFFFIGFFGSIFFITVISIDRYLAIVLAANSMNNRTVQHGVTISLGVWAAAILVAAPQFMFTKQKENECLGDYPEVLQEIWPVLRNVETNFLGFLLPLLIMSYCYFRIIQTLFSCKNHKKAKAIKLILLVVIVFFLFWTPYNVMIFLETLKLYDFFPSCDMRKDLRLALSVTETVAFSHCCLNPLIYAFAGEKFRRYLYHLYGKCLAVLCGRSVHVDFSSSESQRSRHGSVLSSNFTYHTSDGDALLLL

**Q.** “RSV A2 strain G-protein (surface attachment glycoprotein) (from UniProt P03423 1-298) (ligand)” was tested. Which viral load did it give?
**A.** Its viral load is 2.3 fold.
